For this assay, the target named is taxol-stabilized bovine brain microtubules (bovine, UniProt Q6B856 1-445).

B1: Escherichia coli–purified Dam1p (natural protein, S. cerevisiae, UniProt P53267 1-343, looked up)
chain: MSEDKAKLGTTRSATEYRLSIGSAPTSRRSSMGESSSLMKFADQEGLTSSVGEYNENTIQQLLLPKIRELSDSIITLDSNFTRLNFIHESLADLNESLGSLLYGIMSNSWCVEFSQAPHDIQDDLIAIKQLKSLEDEKNNLVMELSNMERGIKRKKDEQGENDLAKASQNKQFNQPLFPSSQVRKYRSYDNRDKRKPSKIGNNLQVENEEDYEDDTSSEASFVLNPTNIGMSKSSQGHVTKTTRLNNNTNSKLRRKSILHTIRNSIASGADLPIENDNVVNLGDLHPNNRISLGSGAARVVNGPVTKNRNSMFSGRAERKPTESRHSVAKKTEKKINTRPPFR
As for B1, the Kd was approximately 500 nM.
